Data: patent US20120171123A1, “USES AND COMPOSITIONS FOR TREATMENT OF RHEUMATOID ARTHRITIS” (priority 2006, published 2012)
Where two headings read alike, the source gives them in different places. Marks after values point to notes of the source that are not given here.

Columns and labels:
[1] = test system: MTX-naïve adult patients with early RA (<3 years); test: Study J: FACIT-F fatigue; assay type: in vivo, human; conditions: for FACIT-F mean change from baseline: LOCF
From the text: The Health Assessment Questionnaire Disability Index (HAQ DI) is a disease-specific tool that measures patient-reported physical function in 8 categories corresponding to normal activities in daily living. Fatigue is an important yet still often overlooked systemic symptom of RA. The Functional Assessment of Chronic Illness Therapy-Fatigue (FACIT-F) tool, measured by a 13-item, validated scale, assesses the impact of a disease and its therapy on fatigue.
Study J is described in detail in the above examples. The Health Assessment Questionnaire Disability Index (HAQ DI) and Functional Assessment of Chronic Illness Therapy-Fatigue (FACIT-F) were assessed at baseline, and following 12, 26, 42, 52, 76, and 104 weeks of therapy. Changes in scores were computed by subtracting the baseline from post-treatment score for each patient; mean changes were reported for each treatment group. The HAQ DI is assessed on a scale of 0-3, with higher numbers indicating greater disability. The minimum clinically important difference (MCID) is defined as changes ≧0.22 (Goldsmith C H, et al. J Rheumatol 1993; 20-561-5). The FACIT-F is assessed on a scale of 0-52, with higher scores indicating less fatigue. Changes of ≧4 are considered clinically meaningful (Cella D, et al. J Pain Symptom Manage 2002:24:547-61).

[2] = test system: patients with long-standing RA; test: Study I open-label extension: HAQ; assay type: in vivo, human; conditions: 5 years
Experimental: Demographic data, age, gender, disease duration, rheumatoid factor and changes in TJC, SJC, CRP, DAS28, HAQ and ACR responses were analysed. Baseline demographics and disease characteristics as well as efficacy measures at last visit (ACR 20/50/70, DAS28, HAQ) were compared between the groups. All patients, including those who discontinued from the trial, were evaluated
Patients were eligible to enroll in Study I if they met ACR criteria for diagnosis of RA. […] Efficacy outcomes were assessed at pre-specified intervals as observed data. Treatment time was calculated beginning with the first subcutaneous injection of adalimumab at any dose, excluding time on placebo. Improvements in signs and symptoms of RA were evaluated for ACR20, ACR50, and ACR70 criteria, 28-joint count Disease Activity Score (DAS28) using the CRP-based formula, and Health Assessment Questionnaire (HAQ). Patients with changes in dosage of MTX or corticosteroids were evaluated for at least 6 months; these patients were eligible for the extension study for at least 6 months and were eligible for discretionary dose tapering. Patients were monitored for adverse events (AEs) during the entire length of the study, from signed informed consent through last visit.

[3] = test system: patients with long-standing RA
[4] = test system: RA patients treated with adalimumab in clinical trials in North America and Europe
Experimental: The rate of TB was calculated for the period before screening was initiated (primarily Phase I trials) and the period after screening was implemented. The screening program consisted of a clinical interview, a tuberculin skin test, and, in most patients, a chest X-ray (CXR). The definition of PPD-positive depended on local country-specific guidelines. For those people who were PPD-positive, or for whom the investigator felt the risk of TB reactivation was high, INH was given for prophylaxis.
The methodology differed among protocols. For instance, in Europe and Australia, it was initially used CXR only, and in later studies, CXR and purified protein derivative skin test (PPD) were both used. By contrast, in US and Canada, CXR and PPD were both used.

[5] = test system: patients with long-standing RA; test: Study 4 (open-label extension, adalimumab 40 mg eow + MTX): ACR response and Major Clinical Response; assay type: in vivo, human
Experimental: The following study was performed to evaluate sustained remission in patients with RA treated with adalimumab and mtx. The study was an open-label extension study, where the last visit of the preceding study was used as the screening visit for Study 4. The study design for Study 4 is described in FIG. 12. The percentage of patients remaining on treatment over time from the first dose of adalimumab remained relatively constant. 846 patients enrolled over time.
ACR response rates and Major Clinical Response (MCR) remained constant through the fourth year of adalimumab treatment. Major Clinical Response (MCR) was defined as patients maintaining an ACR70 response for at least 6 continuous months over a 2-year period. […] At the end of the 4 year time period, 79% of patients had maintained an ACR20, 61% maintained an ACR50 response, and 38% maintained an ACR 70 response.
After these trials, patients were eligible to enroll in two separate OLE studies: Study 4 and Study 5. Patients were evaluated for efficacy and safety every 3 months.
Efficacy outcomes were evaluated as observed data: DAS28; ACR 20/50/70; Tender Joint Count (TJC); Swollen Joint Count (SJC); and HAQ Disability Index. Baseline demographics and disease characteristics were similar in both Study 4 and Study 5 consistent with moderate to severe RA, as shown below in Table 64: […]

[6] = test system: patients with active rheumatoid arthritis; conditions: Study A (N=2008), 12 weeks; cited from earlier work
[7] = test system: patients with RA who had failed prior treatment with infliximab; test: Adalimumab after failed infliximab: HAQ; assay type: in vivo, human
From the text: Patients eligible to participate in the study included those with long-standing, moderate to severe RA who had terminated infliximab therapy because of lack or loss of efficacy and/or intolerance/side effects. […] Follow-up visits for safety and efficacy monitoring were scheduled at 2, 8, and 16 weeks. […] Efficacy parameters included TJC28 and SJC28; DAS28; ACR20, ACR50 Response; Moderate EULAR response; and HAQ. Subgroup analysis by reason for discontinuation included: • in case of discontinuation due to lack or loss of efficacy, patients were counted in the corresponding group regardless of additional cause of intolerance. • The subgroup “Discontinuation due to intolerance” was exclusive.

[8] = US/Canada and Europe RA trials through December 2004

Compound: CN(Cc1cnc2nc(N)nc(N)c2n1)c1ccc(C(=O)N[C@@H](CCC(=O)O)C(=O)O)cc1 [mtx alone, methotrexate]
- FACIT-F mean score ([1]; Baseline): 29.0
- FACIT-F mean change from baseline ([1]; ΔWeek 12): 7.8
- FACIT-F mean change from baseline ([1]; ΔWeek 26): 9.5
- FACIT-F mean change from baseline ([1]; ΔWeek 42): 9.3
- FACIT-F mean change from baseline ([1]; ΔWeek 52): 9.0
- FACIT-F mean change from baseline ([1]; ΔWeek 76): 8.5
- FACIT-F mean change from baseline ([1]; ΔWeek 104): 8.8

Compound: adalimumab: human anti-TNF mAb (HUMIRA, Abbott Laboratories), described in U.S. Pat. No. 6,090,382 as D2E7
- patients with no physical limitations (HAQ=0) [2]: 28%
- Demyelinating disease ([3]; all exposure): 0.04 E/100-PY
- Lymphoma ([3]; all exposure): 0.16 E/100-PY
- Pancytopenia ([3]; all exposure): 0.00 E/100-PY
- Pneumonia ([3]; all exposure): 0.6 E/100-PY
- Septic arthritis ([3]; all exposure): 0.12 E/100-PY
- Tuberculosis ([3]; all exposure): 0.04 E/100-PY
- Urinary tract infections ([3]; all exposure): 0.28 E/100-PY
- Serious infections ([3]; all exposure, 2485 patient-years): 2.62 E/100-PY
- Demyelinating disease ([3]; pivotal trials): 0.13 E/100-PY
- Lymphoma ([3]; pivotal trials): 0.25 E/100-PY
- Pancytopenia ([3]; pivotal trials): 0.25 E/100-PY
- Pneumonia ([3]; pivotal trials): 1.13 E/100-PY
- Septic arthritis ([3]; pivotal trials): 0.38 E/100-PY
- Tuberculosis ([3]; pivotal trials): 0.13 E/100-PY
- Urinary tract infections ([3]; pivotal trials): 0.5 E/100-PY
- Serious infections ([3]; pivotal trials, 793 patient-years): 4.16 E/100-PY
- TB cases: Culture positive [4, 8]: 62%
- TB cases: Extrapulmonary [4, 8]: 65%
- TB: Total Cases [4, 8]: 34
- TB cases: Median months from treatment to diagnosis (range) ([4]; US/Canada and Europe RA trials through December 2004, range 1-54): 7.2 months (1-54)
- cases of TB ([4]; after screening): 27 cases
- rate of TB ([4]; after screening, 14,010 pt-yrs): 0.0019 /pt-yr
- rate of TB ([4]; after screening, Europe): 0.0027
- rate of TB ([4]; after screening, North America): 0.0008
- cases of TB ([4]; before screening): 7 cases
- rate of TB ([4]; before screening, 534 pt-yrs): 0.013 /pt-yrs
- reduction in the rate of developing TB with screening ([4]; human, in vivo): 85%
- TB cases: Outcome Resolved ([4]; of 34 cases, one patient died of unrelated causes): 32**
- median time to the development of TB ([4]; range 14-1636): 167 days
- patients maintaining ACR20 ([5]; end of 4 years): 79%
- patients maintaining ACR50 ([5]; end of 4 years): 61%
- patients maintaining ACR70 ([5]; end of 4 years): 38%
- patients achieving Major Clinical Response (ACR70 ≧6 continuous months) ([5]; patients with at least 3 years of exposure): 31%
- SJC (0-28), change from baseline, median [6]: −7
- TJC (0-28), change from baseline, median [6]: −10
- change in HAQ ([7]; week 16, all (n=37)): −0.25
- change in HAQ ([7]; week 16, infliximab stopped for intolerance (n=5)): −0.15
- change in HAQ ([7]; week 16, infliximab stopped for loss of response (n=19)): −0.36
- change in HAQ ([7]; week 16, infliximab stopped for no response (n=13)): −0.23
